The values that follow come from patent US20220396782.

In the data set the test system is variant Cas12i2 (RNP, exact variant not stated in Examples 1-5). As to the kind of experiment: cell_activity. The conditions noted are these: HEK293T RNP 10 uM, 3 days.

As to “AGAAAUCCGUCUUUCAUUGACGGUAGAUGCUGUCCGAGGCAGU / TAGATGCTGTCCGAGGCAGT / ACTGCCTCGGACAGCATCTA [E2T3 Cas12i2 crRNA ; TTR E2T3 target]”, the activity (PAM 5'-TTN (GTTC)) was over 80 % indels.

Take “AGAAAUCCGUCUUUCAUUGACGGAGGUCCACUGGAGGAGAAGU / AGGTCCACTGGAGGAGAAGT / ACTTCTCCTCCAGTGGACCT [E4T6 Cas12i2 crRNA ; TTR E4T6 target]”: for the setting “PAM 5'-TTN (CTTC)”, the activity was over 80 % indels.

Sequence “AGAAAUCCGUCUUUCAUUGACGGGUAUAUCCCUUCUACAAAUU / GTATATCCCTTCTACAAATT / AATTTGTAGAAGGGATATAC [E3T3 Cas12i2 crRNA ; TTR E3T3 target]” showed an activity (PAM 5'-TTN (CTTT)) of over 80 % indels.
